Reference: patent publication US20250361274A1, “PEPTIDE AND PEPTIDE-CONTAINING AGENT” (PEPTIDREAM INC., priority 2022, published 2025)
Square brackets hold non-standard residues; d marks the D form. Ends that are not written are not given here. 3Pal(6-Ph) = N[C@@H](Cc1ccc(-c2ccccc2)nc1)C(=O)O; Phe(4-COOH) = N[C@@H](Cc1ccc(C(=O)O)cc1)C(=O)O; Bip = N[C@@H](Cc1ccc(-c2ccccc2)cc1)C(=O)O; cisHyp = O=C(O)[C@@H]1C[C@H](O)CN1; NMeF = CN[C@@H](Cc1ccccc1)C(=O)O; Aad = N[C@@H](CCCC(=O)O)C(=O)O; Cha = N[C@@H](CC1CCCCC1)C(=O)O; Abu = CC[C@H](N)C(=O)O; βAla = NCCC(=O)O

Experiments:
[1] = target: T1, BMP7 (Homo sapiens, UniProt P18075); assay: BMP7 signal transduction inhibitory activity: SMAD1 phosphorylation by BMP7 stimulus, A549 cells; type: cell-based; conditions: BMP7 10 nM stimulus; peptide conc. in assay 1, 10, 100 nM
T1 sequence (P18075 293-431): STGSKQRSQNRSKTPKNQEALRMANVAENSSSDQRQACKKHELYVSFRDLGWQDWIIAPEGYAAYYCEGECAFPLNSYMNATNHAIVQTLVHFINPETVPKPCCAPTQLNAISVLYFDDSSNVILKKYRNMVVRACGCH
Outline: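 A549 cells were stimulated with 10 nM BMP7, and the read-out was SMAD1 phosphorylation. Peptides were tested at three concentrations spanning 1 to 1,000 nM, with sets depending on the peptide series. Some peptides were run in eight-point 1/3 dilutions starting from 100 nM or 1,000 nM, with recombinant human Noggin as positive control at matching concentrations.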

[2] = target: T2, BMP4 (Homo sapiens, UniProt P12644); assay: BMP4 signal transduction inhibitory activity: SMAD1 phosphorylation by BMP4 stimulus, AlphaLISA SureFire, A549 cells; type: cell-based; conditions: BMP4 0.2 nM stimulus; peptide conc. in assay 0.2, 2, 20 nM
T2 sequence (P12644 293-408): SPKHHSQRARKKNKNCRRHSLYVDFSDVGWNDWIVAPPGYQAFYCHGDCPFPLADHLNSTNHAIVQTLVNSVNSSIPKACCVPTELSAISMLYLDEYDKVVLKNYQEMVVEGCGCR

Substance | aLISA BMP7 (10 nM) % inh [1] | aLISA BMP4 (0.2 nM) % inh [2]
402 (FG[NMeF]G[Bip]GDE[Cha][Aad][NMeF]L[Abu]CG-NH2; not fully specified) [compound 402] | C (showed less than 30% of inhibitory activity in a zone to which the peptide was added in an amount of 1 nM and showed 30% or more of inhibitory activity in 10 nM-addition zone) | ND (the inhibitory activity was less than 30% at the maximum concentration evaluated)
403 (FG[NMeF]G[Bip]GDE[Cha][Aad][NMeF]L[cisHyp]CG-NH2; not fully specified) [compound 403] | C (showed less than 30% of inhibitory activity in a zone to which the peptide was added in an amount of 1 nM and showed 30% or more of inhibitory activity in 10 nM-addition zone) | ND (the inhibitory activity was less than 30% at the maximum concentration evaluated)
404 (FG[NMeF]G[Bip]GDE[Cha]Q[NMeF]L[Phe(4-COOH)]C-NH2; not fully specified) [compound 404] | C (showed less than 30% of inhibitory activity in a zone to which the peptide was added in an amount of 1 nM and showed 30% or more of inhibitory activity in 10 nM-addition zone) | ND (the inhibitory activity was less than 30% at the maximum concentration evaluated)
405 (FG[NMeF]G[Bip]GDE[Cha]Q[NMeF]L[Phe(4-COOH)]CG; not fully specified) [compound 405] | D (showed less than 30% of inhibitory activity in 10 nM-addition zone and showed 30% or more of inhibitory activity in 100 nM-addition zone) | ND (the inhibitory activity was less than 30% at the maximum concentration evaluated)
406 (FG[NMeF]G[Bip]GDE[Cha]Q[NMeF]L[Phe(4-COOH)]C[βAla]) [compound 406] | D (showed less than 30% of inhibitory activity in 10 nM-addition zone and showed 30% or more of inhibitory activity in 100 nM-addition zone) | ND (the inhibitory activity was less than 30% at the maximum concentration evaluated)
407 (FG[NMeF]G[Bip]GDE[Cha]Q[NMeF]L[Phe(4-COOH)]C[βAla][dE]) [compound 407] | C (showed less than 30% of inhibitory activity in a zone to which the peptide was added in an amount of 1 nM and showed 30% or more of inhibitory activity in 10 nM-addition zone) | ND (the inhibitory activity was less than 30% at the maximum concentration evaluated)
408 (FG[NMeF]G[Bip]GDE[Cha][Aad][NMeF]L[Phe(4-COOH)]C-NH2) [compound 408] | C (showed less than 30% of inhibitory activity in a zone to which the peptide was added in an amount of 1 nM and showed 30% or more of inhibitory activity in 10 nM-addition zone) | ND (the inhibitory activity was less than 30% at the maximum concentration evaluated)
409 (FG[NMeF]G[Bip]GDE[Cha][Aad][NMeF]L[Phe(4-COOH)]C[βAla][dE]) [compound 409] | D (showed less than 30% of inhibitory activity in 10 nM-addition zone and showed 30% or more of inhibitory activity in 100 nM-addition zone) | ND (the inhibitory activity was less than 30% at the maximum concentration evaluated)
410 (FG[NMeF]G[3Pal(6-Ph)]GDE[Cha][Aad][NMeF]L[Phe(4-COOH)]C-NH2; not fully specified) [compound 410] | D (showed less than 30% of inhibitory activity in 10 nM-addition zone and showed 30% or more of inhibitory activity in 100 nM-addition zone) | ND (the inhibitory activity was less than 30% at the maximum concentration evaluated)
411 (FG[NMeF]G[3Pal(6-Ph)]GDE[Cha][Aad][NMeF]L[Phe(4-COOH)]C[βAla][dE]) [compound 411] | D (showed less than 30% of inhibitory activity in 10 nM-addition zone and showed 30% or more of inhibitory activity in 100 nM-addition zone) | ND (the inhibitory activity was less than 30% at the maximum concentration evaluated)
